Reference: patent US11278600B2, “Human alpha-galactosidase variants” (Codexis, Inc., priority 2014, dated 2022)
Changes are numbered by the printed parent chain.

B1: 426 (protein)
chain: LDNGLARTPTMGWLHWERFMCNLDCQEEPDSCISEKLFMEMAERMVSEGWKDAGYEYLCIDDCWMAPQRDSEGRLQADPQRFPHGIRQLANYVHSKGLKLGIYADVGNKTCAGFPGSFGYYDIDAQTFADWGVDLLKFDGCYCDSLENLADGYKHMSLALNRTGRSIVYSCEWPLYMWPFQKPNYTEIRQYCNHWRNFADIDDSWKSIKSILDWTSRNQERIVDVAGPGGWNDPDMLVIGNFGLSWDQQVTQMALWAIEAAPLFMSNDLRHISPQAKALLQDKDVIAINQDPLGKQGYQLRKGDNFEVWERPLSGDAWAVAIINRQEIGGPRSYTIPVASLGKGVACNPACFITQLLPVKRQLGFYNWTSRLKSHINPTGTVLLQLENTMQMSLKDLL
modifications: Synthetic Polypeptide sequence of Variant No. 426 of mature Human GLA
B2: 427 (protein)
chain: B1 chain with E259M, L263G
modifications: Synthetic Polypeptide sequence of Variant No. 427 of mature Human GLA
B3: 364 (protein)
chain: B1 chain with M39H, E259M
modifications: Synthetic Polypeptide sequence of Variant No. 364 of mature Human GLA
B4: 428 (protein)
chain: B1 chain with E259S
modifications: Synthetic Polypeptide sequence of Variant No. 428 of mature Human GLA
B5: 429 (protein)
chain: B1 chain with L255C, E259M
modifications: Synthetic Polypeptide sequence of Variant No. 429 of mature Human GLA
B6: 430 (protein)
chain: B1 chain with E259M, H271T
modifications: Synthetic Polypeptide sequence of Variant No. 430 of mature Human GLA
B7: 431 (protein)
chain: B1 chain with E259M, R270G
modifications: Synthetic Polypeptide sequence of Variant No. 431 of mature Human GLA
B8: 432 (protein)
chain: B1 chain with E259M
modifications: Synthetic Polypeptide sequence of Variant No. 432 of mature Human GLA
B9: 433 (protein)
chain: B1 chain with E259M, H271Q
modifications: Synthetic Polypeptide sequence of Variant No. 433 of mature Human GLA
B10: 434 (protein)
chain: B1 chain with E259M, R270D
modifications: Synthetic Polypeptide sequence of Variant No. 434 of mature Human GLA
B11: 435 (protein)
chain: B1 chain with I258L, E259M
modifications: Synthetic Polypeptide sequence of Variant No. 435 of mature Human GLA
B12: 436 (protein)
chain: B1 chain with E259M, H271G
modifications: Synthetic Polypeptide sequence of Variant No. 436 of mature Human GLA
B13: 437 (protein)
chain: B1 chain with E259M, L263E
modifications: Synthetic Polypeptide sequence of Variant No. 437 of mature Human GLA
B14: 365 (protein)
chain: B1 chain with S47N, E259M
modifications: Synthetic Polypeptide sequence of Variant No. 365 of mature Human GLA
B15: 439 (protein)
chain: B1 chain with E259M, H271A
modifications: Synthetic Polypeptide sequence of Variant No. 439 of mature Human GLA
B16: 440 (protein)
chain: B1 chain with E259M, L263C
modifications: Synthetic Polypeptide sequence of Variant No. 440 of mature Human GLA

Assay: HTP-analysis of yeast culture supernatants, no challenge (MUGal hydrolysis)
Assay type: biochemical
Conditions: activity of the variant/activity of Rd4BB (SEQ ID NO: 15)
Summary of the method: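 GLA variants were expressed in INVSc1 yeast grown in SD-Ura broth with glucose at 30° C., and culture supernatants were collected after 66-84 h. Supernatant was mixed with McIlvaine buffer pH 4.8 and MUGal (2 mM stock) in 50 mM citrate, 200 mM KCl, pH 4.6, incubated at 37° C. for 30-180 minutes, then quenched with sodium carbonate.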

Molecule | Relative Activity of GLA Variants After No Challenge (NC)
B1 | + (0.5 to 1.5 relative activity over Rd4BB (SEQ ID NO: 15))
B2 | + (0.5 to 1.5 relative activity over Rd4BB (SEQ ID NO: 15))
B3 | + (0.5 to 1.5 relative activity over Rd4BB (SEQ ID NO: 15))
B4 | + (0.5 to 1.5 relative activity over Rd4BB (SEQ ID NO: 15))
B5 | + (0.5 to 1.5 relative activity over Rd4BB (SEQ ID NO: 15))
B6 | + (0.5 to 1.5 relative activity over Rd4BB (SEQ ID NO: 15))
B7 | + (0.5 to 1.5 relative activity over Rd4BB (SEQ ID NO: 15))
B8 | + (0.5 to 1.5 relative activity over Rd4BB (SEQ ID NO: 15))
B9 | + (0.5 to 1.5 relative activity over Rd4BB (SEQ ID NO: 15))
B10 | + (0.5 to 1.5 relative activity over Rd4BB (SEQ ID NO: 15))
B11 | + (0.5 to 1.5 relative activity over Rd4BB (SEQ ID NO: 15))
B12 | + (0.5 to 1.5 relative activity over Rd4BB (SEQ ID NO: 15))
B13 | + (0.5 to 1.5 relative activity over Rd4BB (SEQ ID NO: 15))
B14 | + (0.5 to 1.5 relative activity over Rd4BB (SEQ ID NO: 15))
B15 | + (0.5 to 1.5 relative activity over Rd4BB (SEQ ID NO: 15))
B16 | + (0.5 to 1.5 relative activity over Rd4BB (SEQ ID NO: 15))

Assay: HTP-analysis of supernatants pretreated with acid (MUGal hydrolysis)
Assay type: biochemical
Conditions: activity of the variant/activity of Rd4BB (SEQ ID NO: 15); challenge at pH 3.7
Summary of the method: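 Yeast INVSc1 supernatant, GLA variants; acid challenge: McIlvaine pH 3.3-4.3, 37° C., 1-3 h. Assay: MUGal in McIlvaine pH 4.8 plus citrate pH 4.3, 37° C., 30-180 min, Na2CO3 stop, Ex 355/Em 448 nm.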

Molecule | Relative Activity of GLA Variants After Challenge at pH 3.7
B1 | − (<0.5 relative activity over Rd4BB (SEQ ID NO: 15))
B2 | − (<0.5 relative activity over Rd4BB (SEQ ID NO: 15))
B3 | + (0.5 to 1.5 relative activity over Rd4BB (SEQ ID NO: 15))
B4 | + (0.5 to 1.5 relative activity over Rd4BB (SEQ ID NO: 15))
B5 | + (0.5 to 1.5 relative activity over Rd4BB (SEQ ID NO: 15))
B6 | − (<0.5 relative activity over Rd4BB (SEQ ID NO: 15))
B7 | − (<0.5 relative activity over Rd4BB (SEQ ID NO: 15))
B8 | − (<0.5 relative activity over Rd4BB (SEQ ID NO: 15))
B9 | + (0.5 to 1.5 relative activity over Rd4BB (SEQ ID NO: 15))
B10 | − (<0.5 relative activity over Rd4BB (SEQ ID NO: 15))
B11 | ++ (>1.5 to 2.5 relative activity over Rd4BB (SEQ ID NO: 15))
B12 | − (<0.5 relative activity over Rd4BB (SEQ ID NO: 15))
B13 | + (0.5 to 1.5 relative activity over Rd4BB (SEQ ID NO: 15))
B14 | + (0.5 to 1.5 relative activity over Rd4BB (SEQ ID NO: 15))
B15 | + (0.5 to 1.5 relative activity over Rd4BB (SEQ ID NO: 15))
B16 | + (0.5 to 1.5 relative activity over Rd4BB (SEQ ID NO: 15))

Assay: HTP-analysis of supernatants pretreated with base (MUGal hydrolysis)
Assay type: biochemical
Conditions: activity of the variant/activity of Rd4BB (SEQ ID NO: 15); challenge at pH 9.65
Summary of the method: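 GLA variants were secreted by transformed INVSc1 yeast grown 66-84 h at 30° C. Supernatants were exposed to neutral-to-basic buffers (pH 7.0-9.7) at 37° C for 1-18 h, then assayed with MUGal in acidic citrate/McIlvaine buffer, with fluorescence read after quenching.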

Molecule | Relative Activity of GLA Variants After Challenge at pH 9.65
B1 | − (<0.5 relative activity over Rd4BB (SEQ ID NO: 15))
B2 | − (<0.5 relative activity over Rd4BB (SEQ ID NO: 15))
B3 | − (<0.5 relative activity over Rd4BB (SEQ ID NO: 15))
B4 | − (<0.5 relative activity over Rd4BB (SEQ ID NO: 15))
B5 | − (<0.5 relative activity over Rd4BB (SEQ ID NO: 15))
B6 | + (0.5 to 1.5 relative activity over Rd4BB (SEQ ID NO: 15))
B7 | − (<0.5 relative activity over Rd4BB (SEQ ID NO: 15))
B8 | + (0.5 to 1.5 relative activity over Rd4BB (SEQ ID NO: 15))
B9 | + (0.5 to 1.5 relative activity over Rd4BB (SEQ ID NO: 15))
B10 | − (<0.5 relative activity over Rd4BB (SEQ ID NO: 15))
B11 | − (<0.5 relative activity over Rd4BB (SEQ ID NO: 15))
B12 | − (<0.5 relative activity over Rd4BB (SEQ ID NO: 15))
B13 | − (<0.5 relative activity over Rd4BB (SEQ ID NO: 15))
B14 | + (0.5 to 1.5 relative activity over Rd4BB (SEQ ID NO: 15))
B15 | + (0.5 to 1.5 relative activity over Rd4BB (SEQ ID NO: 15))
B16 | − (<0.5 relative activity over Rd4BB (SEQ ID NO: 15))
